This note sets out measurements from patent publication US7038112B2, “Fatty acid elongases” (Miami University, priority 1997, dated 2006).

Read-outs that look alike come from different tables or passages of the source.

For one data set, the target named is T1, EL1 (Arabidopsis thaliana, UniProt Q9MAM3).
T1 construct: Yeast cultures containing full-length EL1 in λYES and full-length EL2 in pYEUra3 were grown in the presence of galactose or glucose; made in house; microsomes of galactose-induced cells
T1 sequence (Q9MAM3 9-528 limits assumed): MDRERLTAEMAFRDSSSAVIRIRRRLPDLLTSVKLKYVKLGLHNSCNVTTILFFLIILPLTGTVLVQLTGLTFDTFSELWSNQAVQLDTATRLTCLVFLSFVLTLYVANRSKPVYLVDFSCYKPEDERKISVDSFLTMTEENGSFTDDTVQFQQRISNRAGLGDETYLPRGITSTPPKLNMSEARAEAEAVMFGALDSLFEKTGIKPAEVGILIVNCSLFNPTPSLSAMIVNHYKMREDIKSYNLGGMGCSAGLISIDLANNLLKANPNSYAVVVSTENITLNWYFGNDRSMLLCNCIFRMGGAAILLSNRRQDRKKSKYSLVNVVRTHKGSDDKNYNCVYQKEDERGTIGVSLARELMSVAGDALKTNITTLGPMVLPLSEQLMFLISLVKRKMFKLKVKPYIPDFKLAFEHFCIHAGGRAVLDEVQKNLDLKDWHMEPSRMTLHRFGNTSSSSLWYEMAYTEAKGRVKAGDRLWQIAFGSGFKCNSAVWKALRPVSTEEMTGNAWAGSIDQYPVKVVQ
The data set can be described thus: 18:0-CoA elongation by EL1 microsomes in standard reaction mix containing cerulenin. The class given is biochemical. Here is the method:
(§1) Fatty acid elongase activity was measured essentially as described in Hlousek-Radojcic, A. et al., Plant J. 8:803–809 (1995). Briefly, the standard elongation reaction mix contained 80 mM Hepes-KOH, pH 7.2, 20 mM MgCl2, 500 μM NADPH, 1 mM ATP, 100 μM malonyl-CoA, 10 μM CoA-SH and 15 μM radioactive acyl-CoA substrate. The radiolabeled substrate was either [1^−14C]18:1-CoA (50 uCi μmol^−1), [1^−14C]18:0-CoA (55 uCi μmol^−1), or [1^−14C]16:0-CoA (54 uCi μmol^−1). The reaction was initiated by the addition of yeast microsomes (5 μg protein) and the mixture incubated at 30° C. for the indicated period of time. The final reaction volume was 25 μl.
(§2) Methyl esters of the acyl-CoA elongation products were prepared as described in Example 1. Methyl esters were separated on reversed phase silica gel KC18 TLC plates (Whatman, […] thick), quantified by phosphorimaging, and analyzed on by ImageQuant software (Molecular Dynamics, Inc., Sunnyvale, Calif.). The detection limit for each product is about 0.001 nanomoles per min. per mg microsomal protein, depending on the phosphorimage exposure time.
(§3) In a third experiment, microsomes from induced and uninduced cultures containing EL1 or EL2 were incubated in the absence of cofactors involved in the β-ketoacyl condensation reaction. Cultures were induced and microsomes were prepared as described in Example 2. In vitro assays were carried out as described in Example 2, except that either ATP, CoASH or both were omitted from the enzyme reaction mixture.

Another data set addresses T2, EL2 (Arabidopsis thaliana, UniProt Q9SYZ0).
T2 construct: Yeast cultures containing full-length EL1 in λYES and full-length EL2 in pYEUra3 were grown in the presence of galactose or glucose; made in house; microsomes of galactose-induced cells
T2 sequence (Q9SYZ0 36-493): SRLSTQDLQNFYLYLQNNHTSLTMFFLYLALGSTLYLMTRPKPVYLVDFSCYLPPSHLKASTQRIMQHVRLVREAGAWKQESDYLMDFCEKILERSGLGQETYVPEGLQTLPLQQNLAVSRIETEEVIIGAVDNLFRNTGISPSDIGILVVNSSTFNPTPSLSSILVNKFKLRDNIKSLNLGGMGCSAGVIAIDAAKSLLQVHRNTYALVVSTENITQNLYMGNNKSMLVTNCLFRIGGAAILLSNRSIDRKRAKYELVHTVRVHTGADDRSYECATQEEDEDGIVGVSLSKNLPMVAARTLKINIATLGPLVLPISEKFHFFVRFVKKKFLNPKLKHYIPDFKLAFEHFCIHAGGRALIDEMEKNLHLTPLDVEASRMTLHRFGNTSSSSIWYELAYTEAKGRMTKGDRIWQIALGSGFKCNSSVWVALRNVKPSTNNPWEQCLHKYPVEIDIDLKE
In words: 18:0-CoA elongation by EL2 microsomes in standard reaction mix containing cerulenin. The class given is biochemical. The protocol: as §1, §2, §3

A short description of data set [1]: In vitro fatty acid elongation assay with yeast microsomes, 18:0 acyl-CoA substrate. The class given is biochemical, Saccharomyces cerevisiae. The protocol:
(§4) Transformed yeast cells were grown in the presence of either glucose or galactose (2% w/v) as described in Example 1. Cells were harvested by centrifugation at 5000×g for 10 min and washed with 10 ml ice cold isolation buffer (IB), which contains 80 mM Hepes-KOH, pH 7.2, 5 mM EGTA, 5 mM EDTA, 10 mM KC1, 320 mM sucrose and 2 mM DTT). Cells were then resuspended in enough IB to fill a 1.7 ml tube containing 700 μl of 0.5 μm glass beads and yeast microsomes were isolated from the cells essentially as described in Tillman, T. and Bell, R., J. Biol. Chem. 261:9144–9149 (1986). The microsomal membrane pellet was recovered by centrifugation at 252,000×g for 60 min. The pellet was rinsed by resuspending in 40 ml fresh IB and again recovered by centrifugation at 252000×g for 60 min. Microsomal pellets were resuspended in a minimal volume of IB, and the protein concentration adjusted to 2.5 μg μl^−1 by addition of IB containing 15% glycerol. Microsomes were frozen on dry ice and stored at −80° C. The protein concentration in microsomes was determined by the Bradford method (Bradford, 1976).
as §1, §2
(§5) Yeast cultures containing full-length EL1 in λYES and full-length EL2 in pYEUra3 were grown in the presence of galactose or glucose as described in Example 2. Microsomes were then prepared from each of the cultures and fatty acid elongation assays were carried out as described in Example 2.
(§6) In the first experiment, microsomes were prepared from galactose-induced cultures of EL1, EL2 and FAE1, and incubated with either [1-^14C] 18:0 acyl-CoA or [1-^14C] 18:1 acyl-CoA as substrate. The amounts of various reaction products synthesized after 30 minutes (min) were determined as described in Example 2.
In a second experiment, microsomes were prepared from galactose-induced and from glucose-repressed yeast cultures containing EL1 or EL2 coding sequences. The microsomal preparations were incubated with either 18:0 acyl-CoA or 18:1 acyl-CoA as substrate and the fatty acid reaction products determined as described above. […]

The subject of data set [2] is Saccharomyces cerevisiae strain AB1380. In words: Fatty acid composition of yeast cells transformed with pYEUra3/FAE1. The class given is cell-based. To be noted: galactose-induced yeast containing the FAE1 coding sequence. The protocol:
Yeast transformed with pYEUra3 having FAE1 operably linked to the GAL1 promoter were grown in the presence of galactose or glucose and were analyzed for the expression of FAE1. As a control, yeast transformed with pYEUra3 containing no insert were also assayed. Analysis of such control preparations yielded fatty acid compositions and fatty acid elongation rates similar to those of yeast transformed with pYEUra3/FAE1. and grown with glucose as the carbon source.
The fatty acid composition of yeast cells grown in the presence of galactose was compared to that of cells grown in the presence of glucose, to determine if VLCFA were found in the galactose-induced cells.
Transformed yeast cells were grown overnight in YPD media at 30° C. with vigorous shaking. One hundred μl of the overnight culture were used to inoculate 40 ml of complete minimal uracil dropout media (CM-Ura) supplemented with either glucose or galactose (2% w/v). Cultures were grown at 30° C. to an OD600 of approximately 1.3 to 1.5. Cells were harvested by centrifugation at 5000×g for 10 min. Total lipids were extracted from the cells with 2 volumes of 4N KOH in 100% methanol for 60 min. at 80° C. […] Methyl esters were analyzed on an HP 5890 series II gas chromatograph equipped with a 5771MSD and 7673 auto injector (Hewlett-Packard, Cincinnati, Ohio.). […]

Data set [3] in a line: In vitro fatty acid elongation assay with yeast microsomes, 16:0 acyl-CoA substrate. The class given is biochemical, Saccharomyces cerevisiae. The protocol: as §4, §1, §2
The format of data set [4] is biochemical, Saccharomyces cerevisiae. The protocol:
as §4, §1, §2, §5, §6
In a second experiment, microsomes were prepared from galactose-induced and from glucose-repressed yeast cultures containing EL1 or EL2 coding sequences. The microsomal preparations were incubated with either 18:0 acyl-CoA or 18:1 acyl-CoA as substrate and the fatty acid reaction products determined as described above.

Setting [5] is: EL1, galactose-induced, +Cer 0.01 mM cerulenin, average of two experiments.
Setting [6] is: EL2, galactose-induced, +Cer 0.01 mM cerulenin, average of two experiments.
[7] abbreviates: 18:0-CoA substrate, galactose-induced, 30 min, first experiment.
Where [8] appears, read: 18:1-CoA substrate, galactose-induced, 30 min, first experiment.
The mark [9] stands for this setting: microsomes from galactose-induced cells.

`C/C=C/C/C=C/CCC(=O)[C@H]1O[C@H]1C(N)=O` [cerulenin]: the “inhibition of KAS activity of EL1” value against EL1 (0.01 mM cerulenin) is listed as “does not inhibit”. At EL1 (setting [5]), the “20:0 product as a percent of total products formed” value stood at 46.7%, the “22:0 product as a percent of total products formed” value stood at 16.2%, the “24:0 product as a percent of total products formed” value is on record as 17.7% and the “26:0 product as a percent of total products formed” value came out at 19.4%. The “Total products as a percent of total products formed” value at EL1 (setting [5]) came out at 100.0%. The “inhibition of KAS activity of EL2” value at EL2 (0.01 mM cerulenin) is given as “does not inhibit”. Further, on EL2 (setting [6]), the “20:0 product as a percent of total products formed” value stood at 41.8%, the “22:0 product as a percent of total products formed” value is 16.1%, the “24:0 product as a percent of total products formed” value amounted to 20.4% and the “26:0 product as a percent of total products formed” value came to 21.8%. Further, at EL2 (setting [6]), the “Total products as a percent of total products formed” value stood at 100.0%.

B1: FAE1: Known Arabidopsis FAE1 elongase β-ketoacyl synthase expressed in yeast, used as comparator (protein, UniProt Q38860 1-506, looked up)
3-ketoacyl-CoA synthase 18: MTSVNVKLLYRYVLTNFFNLCLFPLTAFLAGKASRLTINDLHNFLSYLQHNLITVTLLFAFTVFGLVLYIVTRPNPVYLVDYSCYLPPPHLKVSVSKVMDIFYQIRKADTSSRNVACDDPSSLDFLRKIQERSGLGDETYSPEGLIHVPPRKTFAASREETEKVIIGALENLFENTKVNPREIGILVVNSSMFNPTPSLSAMVVNTFKLRSNIKSFNLGGMGCSAGVIAIDLAKDLLHVHKNTYALVVSTENITQGIYAGENRSMMVSNCLFRVGGAAILLSNKSGDRRRSKYKLVHTVRTHTGADDKSFRCVQQEDDESGKIGVCLSKDITNVAGTTLTKNIATLGPLILPLSEKFLFFATFVAKKLLKDKIKHYYVPDFKLAVDHFCIHAGGRAVIDELEKNLGLSPIDVEASRSTLHRFGNTSSSSIWYELAYIEAKGRMKKGNKAWQIALGSGFKCNSAVWVALRNVKASANSPWQHCIDRYPVKIDSDLSKSKTHVQNGRS
Regarding B1, in data set [1] (setting [7]), the “(%) 20:0 acyl-CoA product” value came out at 64.3%, the “(%) 22:0 acyl-CoA product” value worked out at 18.6%, the “(%) 24:0 acyl-CoA product” value was 10.7% and the “(%) 26:0 acyl-CoA product” value came to 6.3%. In addition, in data set [1] (setting [7]), the “(%) Total acyl-CoA products” value was determined as 100.0%; the “Rate, 20:0 acyl-CoA product” value is 0.369 Nanomoles/minute/mg of microsomal protein; the “Rate, 22:0 acyl-CoA product” value is on record as 0.113 Nanomoles/minute/mg of microsomal protein; the “Rate, 24:0 acyl-CoA product” value is 0.065 Nanomoles/minute/mg of microsomal protein. For the same molecule, in data set [1] (setting [7]), the “Rate, 26:0 acyl-CoA product” value is listed as 0.038 Nanomoles/minute/mg of microsomal protein and the “Rate, Total acyl-CoA products” value is recorded as 0.585 Nanomoles/minute/mg of microsomal protein. For the same molecule, the “synthesis of 20:0 CoA from the 18:0 CoA substrate” value in data set [1] (microsomes from induced yeast) came out at 5.1 nmol mg protein^−1. Also, the “very long chain fatty acids in transformed yeast cells” value in data set [2] is “appearance of both 20:1 and 22:1 acyl-CoA products”. Besides, in data set [3] (induced minus uninduced), the “FAE1 elongase KAS activity, difference in 16:0 elongation rates between induced and uninduced microsomes” value stood at 5.7 nmol mg protein^−1. Besides, in data set [3] (induced vs uninduced), the “16:0-CoA elongation by microsomes from induced cells, higher than uninduced cells” value was “more than 50%”. The “total rate of elongation of [14C]16:0-CoA” value in data set [3] (microsomes from induced cells, at 30 min) is listed as 15.8 nmol mg protein^−1. Also, the “synthesis of 20:0 CoA from the 16:0 CoA substrate” value in data set [3] (microsomes from induced yeast) was 4.2 nmol mg protein^−1. For the same molecule, in data set [4], the “increase in 18:1 CoA elongation, microsomes from induced vs uninduced cells” value is “about 18 fold”. In addition, in data set [4] (setting [8]), the “(%) 20:1 acyl-CoA product” value amounted to 84.6%, the “(%) 22:1 acyl-CoA product” value was determined as 15.4%, the “(%) 24:1 acyl-CoA product” value was determined as 0.0% and the “(%) 26:1 acyl-CoA product” value worked out at 0.0%. In data set [4] (setting [8]), the “(%) Total acyl-CoA products” value is listed as 100.0%; the “Rate, 20:1 acyl-CoA product” value is 1.131 Nanomoles/minute/mg of microsomal protein; the “Rate, 22:1 acyl-CoA product” value is 0.206 Nanomoles/minute/mg of microsomal protein; the “Rate, 24:1 acyl-CoA product” value is on record as 0.0 Nanomoles/minute/mg of microsomal protein. Also, in data set [4] (setting [8]), the “Rate, 26:1 acyl-CoA product” value is given as 0.0 Nanomoles/minute/mg of microsomal protein and the “Rate, Total acyl-CoA products” value was 1.337 Nanomoles/minute/mg of microsomal protein. Moreover, in data set [4] (setting [9]), the “rate of elongation of oleoyl-CoA relative to rate of elongation of 16:0-CoA” value is listed as “about 2 fold” and the “rate of elongation of oleoyl-CoA relative to rate of elongation of 18:0-CoA” value was about 3 fold.
